Series [1] has as its target T1, QuiR2 (Listeria monocytogenes EGD-e) (UniProt Q8Y543).
T1 sequence: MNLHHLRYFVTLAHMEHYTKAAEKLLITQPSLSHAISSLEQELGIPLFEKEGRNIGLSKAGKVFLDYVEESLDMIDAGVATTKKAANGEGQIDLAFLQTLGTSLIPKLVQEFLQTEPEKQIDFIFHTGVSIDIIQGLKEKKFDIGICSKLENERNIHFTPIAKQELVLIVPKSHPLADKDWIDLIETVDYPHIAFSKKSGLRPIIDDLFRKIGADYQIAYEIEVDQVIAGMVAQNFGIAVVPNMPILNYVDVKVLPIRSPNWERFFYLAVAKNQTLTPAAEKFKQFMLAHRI
The experiment in a line: EMSA.

Series [2] deals with T2, QuiR2;QuiR (Listeria monocytogenes EGD-e;Listeria monocytogenes EGD-e?) (UniProt Q8Y543+Q8Y9N7).
T2 sequence 1: T1 sequence
T2 sequence 2: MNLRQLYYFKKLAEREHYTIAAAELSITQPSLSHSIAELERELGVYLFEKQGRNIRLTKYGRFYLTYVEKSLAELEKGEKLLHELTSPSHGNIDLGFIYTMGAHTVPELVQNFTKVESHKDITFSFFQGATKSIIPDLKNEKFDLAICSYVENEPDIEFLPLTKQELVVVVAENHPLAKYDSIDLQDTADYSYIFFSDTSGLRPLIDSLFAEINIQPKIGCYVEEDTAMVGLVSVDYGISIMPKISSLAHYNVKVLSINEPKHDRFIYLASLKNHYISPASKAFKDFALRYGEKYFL
The experiment in a line: EMSA. (Mobility shift assays separate free from complexed probe on a gel.)

For the sequence “CGCAAGTTCATCGGTTAACCTCCTCGGAATGCCTTGATAACTCTATTGTAAGCGATTGTATAGAAAAAATCTATGGATAAATCGAAAAATATACATTAGATTAATAATTATTCCTGACTTATAATGAAAGAGAAATAAGATTGTGCATTATTGAACGTGAATAATGTAACAAATCATTTGCTGAGATTATAGTCGCAGGAGGCTTATTATGACAGATTATCCGAG (double strand) [qui1 intergenic region probe (225 nt)]”, the binding entry in series [1] and in series [2] was “binds” each time.

The values above are taken from publication doi:10.1101/2025.04.08.647683.
